Reference: the RNAGym collection of RNA variant scans (doi:10.1073/pnas.2313332121)
This sample holds only a part of the variants without activity.

B1: TPR 5TU (parent)
chain: GGAUCUUCUCGAUCUAACAAAAAAGACAAAUCUGCCACAAAGCUUGAGAGCAUCUUCGGAUGCAGAGGCGGCAGCCUUCGGUGGCGCGAUAGCGCCAACGUUCUCAACUAUGACACGCAAAACGCGUGCUCCGUUGAAUGGAGUUUAUCAUG

Variants of: B1
Experiment: polymerase ribozyme fitness, log enrichment relative to wild type (log ratio); higher = more active; in vitro selection for triplet polymerase activity
Procedure, shortened: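 Input and output libraries were sequenced on Illumina after a single in vitro selection round, run in triplicate on PCR-built, transcribed mutant libraries of each subunit of a heterodimeric triplet polymerase ribozyme. Selection annealed libraries to a biotinylated primer, the partner subunit and triplets, incubated them frozen at −7 °C, then gel-excised extended constructs for streptavidin-bead capture and RT-PCR. Genotypes with ≥10 input reads and ≥1 read per output were kept. Fitness is the logarithm, taken in base 2, of genotype enrichment divided by wild-type enrichment, using inverse-variance-weighted replicate averages.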

Variant | polymerase ribozyme fitness (log ratio)
G70C G136C | ≤ -4.2
G58C U61A C79A A91G G117A | ≤ -4.2
U9A A24G C54A C87G | ≤ -4.2
G94C G117U | 0.0157
A30G C87U A110U C131A G136U G141U | ≤ -4.2
U55A G62C G81A | -3.98
C14G A24U A28U C43U A73G U82C C103G G136A U146C | ≤ -4.2
C87U C118U A147U | -0.411
A17G A29C C32G G48C | ≤ -4.2
C35A C43U A49U A64G C76U C96A U101G C149U | ≤ -4.2
A91U G94A G128U | ≤ -4.2
A60U U127G | -3.08
A39G G42C A47C A91U C93U U101G A119U C125U G133U G136A | ≤ -4.2
C14U A17G G70C G80A A137U | ≤ -4.2
G59U A91U G141A | ≤ -4.2
C114U C125U | -3.33
U53A C54U G74U C75U G86U G141A | ≤ -4.2
A22C U45A | -2.58
C8A U31G C36U C114U A142C | -4.19
A17U A24U A39G C63G | -4.15
C57U G59A G83C G84U C85A U101G G126A A142C | ≤ -4.2
G42C U44G A106G | ≤ -4.2
C38A C43A U55A C87U G117A | ≤ -4.2
C18G A26U C96A | -2.84

Variant | polymerase ribozyme fitness (log ratio)
C93U A97U C116A G133A | ≤ -4.2
C5G A12G A21C A26U C38G U77A C118U | ≤ -4.2
A3U U7G C87A A91G C103U U135C | ≤ -4.2
A19U C35U G42U U55G G67A C85G A97C C114G G140U | ≤ -4.2
U45G G83A | -0.848
U4G G48A G88C C123U U134G A137C | ≤ -4.2
C14A G58A A89U G94U | -3.75
G86A C105U | -0.138
C38G C43U C87A C132G U135G G136C U146A | ≤ -4.2
A16C A17G G58U C87A C93A | ≤ -4.2
C10G C18G G42U A49C G50A G74A G133C G143A | ≤ -4.2
C63G G67C U135G | ≤ -4.2
A12C C85G A122C | -2.14
C54G G80U | -3.52
A40G A52C G83U A98C | -3.64
G11U U56A A64G C118U A121U | ≤ -4.2
C43A C57G U78G C96A A113G | ≤ -4.2
U45G A91C U101G A147C | ≤ -4.2
C8G U31A G34U C57G C93G | ≤ -4.2
A47U U61A C75A C76U G88U | ≤ -4.2
G84A G143U | -2.51
G124A C125G | 0.356
A30U U55A G59A G70A C96G A97G | ≤ -4.2
C14G C95G C96G | -4.07

Variant | polymerase ribozyme fitness (log ratio)
G58A G59U G62C G67U A73U C96A U130G A138U A150G | ≤ -4.2
U61G A89U C95A C99A U109C G136A U148G C149A | ≤ -4.2
A12G U145A | 1.33
C93U G117A A142C | -4.07
C96G U102G | -3.26
U4G U33G C75A C87G U109A A113U G117U | ≤ -4.2
C57G G92U | -0.526
C51A C57G G68C A73C C76G G86U G100C A120G A122C U134A | ≤ -4.2
A16G C43A U53C G70A A73G | ≤ -4.2
A28U G62A G65A G94A G136A | ≤ -4.2
C63U C95U | -0.692
A41G G84U | -0.79
U33C C85A | -3.61
A26C A52C U53A | ≤ -4.2
G81U G84A | -1.28
C38A U56A G74C G92U U109G | ≤ -4.2
G50A U55A G70A G83C U101A U104A C105G G124U | ≤ -4.2
C63U G70A C85G A138C | ≤ -4.2
A21U G83C | -1.57
C5U A28C U56A U77C G94A | ≤ -4.2
A24G G59C | -3.7
A26C A41C A49C G62C A138G | ≤ -4.2
C5G C54U U56A C99U | -1.99
G25U C27U C93U G143U | ≤ -4.2

Variant | polymerase ribozyme fitness (log ratio)
C8G A21C G94C C99A | ≤ -4.2
U13G C96A | -0.681
A26U C69G A142U | -2.62
A39C U56A G59C | -2.08
G70A C76A C79G A91U | ≤ -4.2
A28C G46C C76G U82A A89C G124A | ≤ -4.2
A19G A30G G42C G50A C85U U109A A120G | ≤ -4.2
U56A U104G A115C A142C | ≤ -4.2
U4G G58A C85U A115U U144G | -2.13
C76A | -0.118
A17C U31C G50C C51A | -0.997
C35U C51U U55C C85A U101C C103A U144A | ≤ -4.2
C51A A52C U146G | -2.06
A22G A41C G50A C95U U101G | -1.78
C85A C116A | 0.744
A49C C51G | -4.14
C43A U44G A64C C118G C131G A137G G152U | ≤ -4.2
U13G G81U G86A C105U | -3.74
C5G C18A C87G G143A | ≤ -4.2
A49U U61A C87A G140C | ≤ -4.2
A16C U45G A106G | -0.613
G84U G141A | -1.4
C38A G94A C123U | -0.611
A23G A52C A98U | -3.98

Variant | polymerase ribozyme fitness (log ratio)
C10U A22U A29G U53G C75A G83A A106U A150C | ≤ -4.2
A3G A20U C27G G42A U56A U77G G86A G117U G133C | ≤ -4.2
A49C G81U G84U C125G G141C A150U | ≤ -4.2
G58C G83U | -2.88
U31C C87A | -4.2
U55A C72U C76U U78C G84A | -2.57
U90C C95A U102A C132A | ≤ -4.2
A20U A52U A89C | -3.39
A24G A30U U31C U101G | -3.98
U31A G50A C51G G59A G68C G86C G94U G124U | ≤ -4.2
A73U C99A C103G C114U C123G | ≤ -4.2
C57G G143C | -1.72
A29C G92A G143C U146C | ≤ -4.2
A29C A41G G59C G62C G100A G141C | ≤ -4.2
A12G U31G C118A A120G G141C | -2.6
A29U C51G G58C G71A A91G C95A C103G U151A G152A | ≤ -4.2
C85A C125A | -2.27
C116U U144A | -0.259
A3C A17U A26U C54A C75U C93U C103G G143C | ≤ -4.2
C8G U15G A21G G83U A91G C105U U144C U148A | ≤ -4.2
C10A C85U | -4.01
C8A A30U A40U G48C G84A A113U C132A | ≤ -4.2
C14U A17C C18G A20G G59U C85U A91U C118U G140A | ≤ -4.2
A20G A23C U144G | ≤ -4.2

Variant | polymerase ribozyme fitness (log ratio)
U146G | -0.513
A26U U104C G124C | -3.3
G48C G86U C95A C96G G117C G136A | ≤ -4.2
U55G A60G C69U A91G U144A | -2.3
C5U A17C G50A U77A C87G A91C A106U U109G | ≤ -4.2
U7G A21C C35A A47C C99A C123A | ≤ -4.2
C36A C96U U111G | ≤ -4.2
A20G A22U G59A C93G A98G A137G U139G | ≤ -4.2
A37G G58A G92C G140U | ≤ -4.2
C27U A37C G59U U61A C63U A64C G92U | ≤ -4.2
C18U G58C G86A U104C | -1.79
C96G A142U U146A | -1.97
C54A A91G | -3.97
U45A C76U A98U G100C U101G A106U | -4
C57U G59A G67C G94C | ≤ -4.2
A47G C123U C129G | -3.23
A24U C149G | -3.88
G84A G94A A98C G124A | -0.811
C57G | -0.448
C54A U55G G58U G81C C85A | -2.41
U104C | 0.352
G59A C123A | -0.0504
A16G U144G | 0.162
A26U U56A | -2.17

Variant | polymerase ribozyme fitness (log ratio)
C14U G34U G68A C85U U144A C149A | ≤ -4.2
A73U C85A | -2.44
U7A C35A C87A C93A | ≤ -4.2
G50A C51U U55A G84A C87A C93A C108U G140C U146C | ≤ -4.2
U56G G59C C85G U135A | -2.51
A40G A41U A49U G58C G74U C85A U139G G141C U148C | ≤ -4.2
C8U C38U A49G C79G C93A C103G G136U | ≤ -4.2
U78C A142U | -1.72
A12G C116G | 0.204
A17U G50C G68C C85G G94A A106U C123U U134A U135A | ≤ -4.2
A3U G84U | -2.4
C54G C87U | -3.59
C14G G50U C95U C96U A115G | -4.1
A23C C93U G141U | ≤ -4.2
U31A C87G C114A | -4.03
U45G G128U | -3.86
U7G C38A G83A G84U U148C | ≤ -4.2
C79G A91G A113U | ≤ -4.2
C85A U144A | -0.579
U4G A49U C57U U82G A91U | ≤ -4.2
U13A U55A A89C G128U | -3.92
A12G C87G G88U C96U C105A C108G C116U | ≤ -4.2
A26U G42C C93G A115U | ≤ -4.2
